Among the data in US5543312 are Glycoprotease Specific Activity (nmol/mg/h), cleavage of [125I]-glycophorin A values, retold here.

In this assay the target is glycophorin A from human erythrocytes (human) (UniProt P02724).

Sequence of Pasteurella haemolytica A1 glycoprotease (enzyme from culture supernatant) (P36175 whole entry): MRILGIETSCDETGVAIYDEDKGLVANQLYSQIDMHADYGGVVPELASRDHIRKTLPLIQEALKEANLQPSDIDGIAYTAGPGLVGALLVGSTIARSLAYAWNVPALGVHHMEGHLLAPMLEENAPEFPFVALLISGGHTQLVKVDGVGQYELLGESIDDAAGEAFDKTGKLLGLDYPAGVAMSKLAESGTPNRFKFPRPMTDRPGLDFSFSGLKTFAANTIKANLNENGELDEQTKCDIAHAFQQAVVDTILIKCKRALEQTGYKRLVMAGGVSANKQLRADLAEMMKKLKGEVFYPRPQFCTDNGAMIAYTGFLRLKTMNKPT

As for “Pasteurella haemolytica A1 glycoprotease (enzyme from culture supernatant)”, the Glycoprotease Specific Activity (nmol/mg/h), cleavage of [125I]-glycophorin A worked out at 94 nmol/mg/h.
